Measurements reported in patent US20030147861A1, “Compounds and methods for the modulation of immune responses” (Genesis Research and Development Corporation Limited, priority 2001, published 2003).
Entries after “also recorded” stand apart in the source; their conditions may differ.

Experiments:
[1] = test system: TLR2, TLR4 and CD14 on THP-1 cells (IL-12p40, TNFα, IL-10 production); experiment: Cytokine production by THP-1 cells pre-treated with mAbs to TLR2, TLR4 or CD14 and cultured with M. vaccae derivatives (ELISA); type: cell-based, human; conditions: mAb pre-treatment 60 minutes, 0.32-1000 μg/mL; stimulus 5 μg/mL, 24 hours
Experimental: In subsequent experiments, the effect of antibodies to TLR2, TLR4 and CD14 on the production of IL-12p40, IL-10 and TNF-α in THP-1 cells in response to M. vaccae derivatives was examined as follows.
Prior to culture with M. vaccae derivatives, 50 μL of THP-1 cells in cRPMI-10 were pre-treated in duplicate microplate wells with 50 μL of serially diluted Functional Grade mabs to human TLR2 (clone TL2.1, IgG2a isotype, eBioscience cat. no. 16-9922-82), TLR4 (clone HTA125, IgG2a isotype, eBioscience cat. no. 16-9927-82), or CD14 (clone RM052, IgG2a isotype, Coulter cat. no. IM0643), with a cocktail of all three antibodies or with control mAb (clone AcV1, IgG2a isotype, eBioscience cat. no. 16-4724-85), with each mAb used at a final concentration of 1000 μg/mL, 200 μg/mL, 40 μg/mL, 8.0 μg/mL, 1.60 μg/mL, or 0.32 μg/mL, or with no mAb. Pretreatment of cells with mAbs was for 60 minutes in a water-jacketed, humidified incubator at 37° C. supplied with 5% CO2 in air.
At the end of the 24-hour incubation period, the microplates were centrifuged at 200×g for 5 minutes and the supernatants collected and transferred to a sterile 96-well round-bottom plate.
IL-12p40, TNFα, and IL-10 content in the microculture supernatants was determined by sandwich ELISA using commercially available sets according to the manufacturer's recommendations. […]

[2] = test system: popliteal lymph node cells; experiment: Proliferation of lymph node cells from GV protein-immunized mice; type: cell-based, female BALB/cByJ mice; conditions: lymph node cells of mice immunized with 10 μg of the same GV protein in IFA
Experimental: (§1) The immunogenicity of Mycobacterium vaccae recombinant proteins (referred to herein as GV recombinant proteins) was tested by injecting female BALB/cByJ mice in each hind foot-pad with 10 μg of recombinant GV proteins emulsified in incomplete Freund's adjuvant (IFA). Control mice received phosphate buffered saline in IFA. The draining popliteal lymph nodes were excised 10 days later and the cells obtained therefrom were stimulated with the immunizing GV protein and assayed for proliferation by measuring the uptake of tritiated thymidine. The amount of interferon gamma (IFNγ) produced and secreted by these cells into the culture supernatants was assayed by standard enzyme-linked immunoassay.

[3] = test system: IFNγ production by lymph node cells; experiment: IFNγ production by lymph node cells from GV protein-immunized mice (enzyme-linked immunoassay); type: cell-based, female BALB/cByJ mice; conditions: lymph node cells of mice immunized with the same GV protein
Experimental: as §1

[4] = test system: CD69 on αβT cells, γδT cells and NK cells; type: cell-based, human
[5] = test system: IL-1β, TNF-α, IL-12 and IFN-γ production in PBMC; experiment: Cytokine production in PBMC from normal donors (ELISA); type: cell-based, human
[6] = test system: CD40, CD80 and CD86 on dendritic cells; type: cell-based, human
[7] = test system: CD40, CD80 and CD86 on monocytes; experiment: CD40, CD80 and CD86 expression on monocytes (3 color flow cytometry); type: cell-based, human; conditions: 20 ug/ml, 48 hours, vs non-stimulated cells
Text: (§2) Stimulated cells were harvested and analyzed for up-regulation of CD40, CD80 and CD86 using 3 color flow cytometric analysis. Tables 16, 17 and 18 show the fold increase in mean fluorescence intensity from control (non-stimulated cells) for dendritic cells, monocytes, and B cells, respectively.

[8] = test system: CD40, CD80 and CD86 on B cells; experiment: CD40, CD80 and CD86 expression on B cells (3 color flow cytometry); type: cell-based, human; conditions: 20 ug/ml, 48 hours, vs non-stimulated cells
Text: as §2

[9] = test system: CD83 and CD80 on purified dendritic cells; experiment: Dendritic cell maturation: CD83 and CD80 expression (flow cytometry); type: cell-based; conditions: GV-23 20 μg/ml or LPS 10 μg/ml, 20 hour, mean ± SD (n = 3)
Experimental: The effect of the recombinant M. vaccae protein GV-23 on the maturation and function of dendritic cells was examined as follows.
Purified dendritic cells (5×10^4−10^5 cells/ml) were stimulated with GV-23 (20 μg/ml) or LPS (10 μg/ml) as a positive control. Cells were cultured for 20 hour and then analyzed for CD83 (a maturation marker) and CD80 expression by flow cytometry. Non-stimulated cells were used as a negative control.

[10] = test system: dendritic cells with allogeneic T cells; experiment: Dendritic cell mixed lymphocyte reaction (MLR) assay; type: cell-based; conditions: 20 μg/ml for 18-20 hours, then allogeneic T cells
Experimental: The ability of GV-23 to enhance dendritic cell function as antigen presenting cells was determined by mixed lymphocyte reaction (MLR) assay. Purified dendritic cells were cultured in medium alone or with GV-23 (20 μg/ml) for 18-20 hours and then stimulated with allogeneic T cells (2×10^5 cells/well). After 3 days of incubation, (^3H)-thymidine was added. Cells were harvested 1 day later and the uptake of radioactivity was measured.

[11] = Dose of GV protein used in vitro 2 μg/ml
[12] = Dose of GV protein used in vitro 50 μg/ml
[13] = dendritic cells, 20 ug/ml, 48 hours, vs non-stimulated cells

TLR2 mAb: Functional Grade mAb to human TLR2, clone TL2.1, IgG2a isotype (eBioscience) [reference compound]
inhibition of M. vaccae-, AVAC- and DD-M. vaccae-induced production of IL-12p40 by THP-1 cells [1]: inhibited by TLR2 and CD14 mAbs in a dose-dependent fashion

B1: GV-23: recombinant M. vaccae antigen, amino acid sequence SEQ ID NO: 38 (protein, listed as Mycobacterium vaccae)
chain: VIEIDHVTKRFGDYLAVADADFSIAPGEFFSMLGPSGCGKTTTLRMIAGFETPTEGAIRLEGADVSRTPPNKRNVNTVFQHYALFPHMTVWDNVAYGPRSKKLGKGEVRKRVDELLEIVRLTEFAERRPAQLSGGQQQRVALARALVNYPSALLLDEPLGALDLKLRHVMQFELKRIQREVGITFIYVTHDQEEALTMSDRIAVMNAGNVEQIGSPTEIYDRPATVFVASFIGQANLWAGRCTGRSNRDYVEIDVLGSTLKARPGETTIEPGGHATLMVRPERIRVTPGSQDAPTGDVACVRATVTDLTFQGPVVRLSLAAPDDSTVIAHVGPEQDLPLLRPGDDVYVSWAPEASLVLPGDDIPTTEDLEEMLDDS
Proliferation (cpm) ([2]; Dose of GV protein used in vitro 0.08 μg/ml): 7,393 ± 2,188 cpm
Proliferation (cpm) [2, 11]: 15,423 ± 2,858 cpm
Proliferation (cpm) [2, 12]: 35,598 ± 1,330 cpm
IFNγ [3, 11]: 9.17 ± 1.51 ng/mL
IFNγ ([3]; Dose of GV protein used in vitro 10 μg/ml): 30.70 ± 4.48 ng/mL
IFNγ [3, 12]: 59.67 ± 14.88 ng/mL
CD69 expression on NK cells, comparison with adjuvants [4]: induced CD69 expression on NK cells
percentage of αβT cells expressing CD69 ([4]; PBMC from normal donors, 20 ug/ml, 24 hours, control 3.8): 5.8%
percentage of NK cells expressing CD69 ([4]; PBMC from normal donors, 20 ug/ml, 24 hours, control 4.8): 46.8%
percentage of γδT cells expressing CD69 ([4]; PBMC from normal donors, 20 ug/ml, 24 hours, control 6.2): 10.0%
production of IL-1β, TNF-α, IL-12 and IFN-γ by PBMC [5]: stimulate the production of IL-1β, TNF-α and IL-12; also recorded: induced significant levels of the four cytokines examined
IL-1β production by PBMC relative to known adjuvants ([5]; GV-23 20 μg/ml): higher levels of IL-1β production being seen with GV-23 than with any of the known adjuvants
CD40, CD80 and CD86 expression in dendritic cells, comparison with adjuvants [6]: significant up-regulation of CD40, CD80 and CD86
CD40, CD80 and CD86 expression on dendritic cells ([6]; 20 ug/ml, 48 hours, T cell-depleted PBMC): highest levels of expression
CD40 expression, fold increase in mean fluorescence intensity from control [6, 13]: 6.0 fold
CD80 expression, fold increase in mean fluorescence intensity from control [6, 13]: 4.5 fold
CD86 expression, fold increase in mean fluorescence intensity from control [6, 13]: 1.8 fold
CD40 expression, fold increase in mean fluorescence intensity from control [7]: 2.3 fold
CD80 expression, fold increase in mean fluorescence intensity from control [7]: 1.5 fold
CD86 expression, fold increase in mean fluorescence intensity from control [7]: 0.7 fold
CD40 expression, fold increase in mean fluorescence intensity from control [8]: 1.2 fold
CD80 expression, fold increase in mean fluorescence intensity from control [8]: 1.1 fold
CD86 expression, fold increase in mean fluorescence intensity from control [8]: 1.4 fold
% CD80-positive dendritic cells ([9]; control 9 ± 6.6): 24.7 ± 14.2%
% CD83-positive dendritic cells ([9]; control 15 ± 8): 35 ± 13.2%
dendritic cell mixed lymphocyte reaction ((3H)-thymidine uptake) [10]: enhances dendritic cell mixed lymphocyte reaction
